Results as given in article PMC9599297, “Graphitic Carbon Nitride and IGZO Bio-FET for Rapid Diagnosis of Myocardial Infarction”.

Biological target: cardiac troponin I (cTnI) (UniProt P19429 2-210)
Test: FET aptasensor (IGZO/PCN-Au NPs), drain current change; 47% current change; response 0.01-1000 ng/mL, LOD 0.0066 ng/mL (no Kd); 10 mM PBS pH 7.4 (PBS tablets: 2.7 mM KCl, 137 mM NaCl), 10 min incubation, water wash; surface blocked with MCH and 0.10 mg/mL BSA; temperature not stated
Conditions: protein: commercial

cardiac troponin I (cTnI), sequence (P19429 2-210): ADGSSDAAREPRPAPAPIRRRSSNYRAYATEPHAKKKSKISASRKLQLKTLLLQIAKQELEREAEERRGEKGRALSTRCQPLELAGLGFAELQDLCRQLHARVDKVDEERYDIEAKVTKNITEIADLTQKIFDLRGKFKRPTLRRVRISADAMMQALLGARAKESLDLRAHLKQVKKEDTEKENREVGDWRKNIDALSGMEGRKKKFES

CGTGCAGTACGCCAACCTTTCTCATGCGCTGCCCCTTA (ssDNA, ThiC6 (thiol-C6) at 5' end, immobilised on Au NPs) [Tro4 anti-cTnI DNA aptamer]: binds.
